Measurements as given in article PMC7820290 (Nature Communications, 2020).

Legend:
Experiment in all cases: […]; 5 mM HEPES pH 7.5, 80 mM KCl, 20 °C; […]
Conditions in all cases: both partners purified
[1] = biological target: T1, SARS-CoV-2 nucleocapsid (N) protein, full length (419 aa) (SARS-CoV-2, UniProt P0DTC9 1-419)
T1 construct: also called N^1–419; N^FL

[2] = biological target: T2, SARS-CoV-2 N protein residues 247–419 (SARS-CoV-2, UniProt P0DTC9 247-419)
T2 construct: also called N^247–419

[3] = biological target: T3, SARS-CoV-2 N protein residues 175–419 (SARS-CoV-2, UniProt P0DTC9 175-419)
T3 construct: also called N^175–419

[4] = biological target: T4, SARS-CoV-2 N protein residues 175–364 (SARS-CoV-2, UniProt P0DTC9 175-364)
T4 construct: also called N^175–364

Measured: binding result

B1: soluble C-terminal domain of SARS-CoV-2 membrane (M) protein (aa 104–222 of 222) fused to GFP (domain or fragment)
chain: ARTRSMWSFNPETNILLNVPLHGTILTRPLLESELVIGAVILRGHLRIAGHHLGRCDIKDLPKEITVATSRTLSYYKLGASQRVAGDSGFAAYSRYRIGNYKLNTDHSSSSDNIALLVQ
notes: also called GFP-M^104–222
binds: all assays above
